The text below walks through data of patent publication US20100304465A1.

Some targets named below: mini-plasmin (human) (UniProt P00747); micro-plasmin (UniProt P00747); plasmin (human) (UniProt P00747).
Common to all, as to test: cell-based or functional assay
Assay [1] addresses delta-plasmin (human (recombinant deletion mutant of human plasminogen, made in E. coli)) (UniProt P00747).

B1: α2-macroglobulin (protein, UniProt P01023 24-1474, looked up)
chain: SVSGKPQYMVLVPSLLHTETTEKGCVLLSYLNETVTVSASLESVRGNRSLFTDLEAENDVLHCVAFAVPKSSSNEEVMFLTVQVKGPTQEFKKRTTVMVKNEDSLVFVQTDKSIYKPGQTVKFRVVSMDENFHPLNELIPLVYIQDPKGNRIAQWQSFQLEGGLKQFSFPLSSEPFQGSYKVVVQKKSGGRTEHPFTVEEFVLPKFEVQVTVPKIITILEEEMNVSVCGLYTYGKPVPGHVTVSICRKYSDASDCHGEDSQAFCEKFSGQLNSHGCFYQQVKTKVFQLKRKEYEMKLHTEAQIQEEGTVVELTGRQSSEITRTITKLSFVKVDSHFRQGIPFFGQVRLVDGKGVPIPNKVIFIRGNEANYYSNATTDEHGLVQFSINTTNVMGTSLTVRVNYKDRSPCYGYQWVSEEHEEAHHTAYLVFSPSKSFVHLEPMSHELPCGHTQTVQAHYILNGGTLLGLKKLSFYYLIMAKGGIVRTGTHGLLVKQEDMKGHFSISIPVKSDIAPVARLLIYAVLPTGDVIGDSAKYDVENCLANKVDLSFSPSQSLPASHAHLRVTAAPQSVCALRAVDQSVLLMKPDAELSASSVYNLLPEKDLTGFPGPLNDQDNEDCINRHNVYINGITYTPVSSTNEKDMYSFLEDMGLKAFTNSKIRKPKMCPQLQQYEMHGPEGLRVGFYESDVMGRGHARLVHVEEPHTETVRKYFPETWIWDLVVVNSAGVAEVGVTVPDTITEWKAGAFCLSEDAGLGISSTASLRAFQPFFVELTMPYSVIRGEAFTLKATVLNYLPKCIRVSVQLEASPAFLAVPVEKEQAPHCICANGRQTVSWAVTPKSLGNVNFTVSAEALESQELCGTEVPSVPEHGRKDTVIKPLLVEPEGLEKETTFNSLLCPSGGEVSEELSLKLPPNVVEESARASVSVLGDILGSAMQNTQNLLQMPYGCGEQNMVLFAPNIYVLDYLNETQQLTPEIKSKAIGYLNTGYQRQLNYKHYDGSYSTFGERYGRNQGNTWLTAFVLKTFAQARAYIFIDEAHITQALIWLSQRQKDNGCFRSSGSLLNNAIKGGVEDEVTLSAYITIALLEIPLTVTHPVVRNALFCLESAWKTAQEGDHGSHVYTKALLAYAFALAGNQDKRKEVLKSLNEEAVKKDNSVHWERPQKPKAPVGHFYEPQAPSAEVEMTSYVLLAYLTAQPAPTSEDLTSATNIVKWITKQQNAQGGFSSTQDTVVALHALSKYGAATFTRTGKAAQVTIQSSGTFSSKFQVDNNNRLLLQQVSLPELPGEYSMKVTGEGCVYLQTSLKYNILPEKEEFPFALGVQTLPQTCDEPKAHTSFQISLSVSYTGSRSASNMAIVDVKMVSGFIPLKPTVKMLERSNHVSRTEVSSNHVLIYLDKVSNQTLSLFFTVLQDVPVRDLKPAIVKVYDYYETDEFAIAEYNAPCSKDLGNA
Take B1: the inhibition rate (22° C., PBS, pH 7.4) in assay [1] was 760000 M^-1s^-1; in the assay with mini-plasmin (human), 750000 M^-1s^-1; with micro-plasmin, 780000 M^-1s^-1; in the assay with plasmin (human), 650000 M^-1s^-1.

B2: α2-antiplasmin (protein, UniProt P08697 40-491, looked up)
chain: NQEQVSPLTLLKLGNQEPGGQTALKSPPGVCSRDPTPEQTHRLARAMMAFTADLFSLVAQTSTCPNLILSPLSVALALSHLALGAQNHTLQRLQQVLHAGSGPCLPHLLSRLCQDLGPGAFRLAARMYLQKGFPIKEDFLEQSEQLFGAKPVSLTGKQEDDLANINQWVKEATEGKIQEFLSGLPEDTVLLLLNAIHFQGFWRNKFDPSLTQRDSFHLDEQFTVPVEMMQARTYPLRWFLLEQPEIQVAHFPFKNNMSFVVLVPTHFEWNVSQVLANLSWDTLHPPLVWERPTKVRLPKLYLKHQMDLVATLSQLGLQELFQAPDLRGISEQSLVVSGVQHQSTLELSEVGVEAAAATSIAMSRMSLSSFSVNRPFLFFIFEDTTGLPLFVGSVRNPNPSAPRELKEQQDSPGNKDFLQSLKGFPRGDKLFGPDLKLVPPMEEDYPQFGSPK
Consider B2, for which, in assay [1], the fold change of inhibition rate against micro-plasmin or mini-plasmin was determined as 40 fold and the inhibition rate (22° C., PBS, pH 7.4; residual S-2251 activity) worked out at 1.1e+07 M^-1s^-1. For the same molecule, the inhibition rate (22° C., PBS, pH 7.4; residual S-2251 activity) with mini-plasmin (human) came to 240000 M^-1s^-1. In the assay with micro-plasmin, this molecule displayed an inhibition rate (22° C., PBS, pH 7.4; residual S-2251 activity) of 180000 M^-1s^-1 and an inhibition rate (second separate experiment; residual S-2251 activity) of 310000 M⁻¹ s⁻¹.
